Measurements from US20240288440A1.

What was measured:
[1] = target: chimeric secretory component (CSC) of the polymeric immunoglobulin receptor (rabbit (domain 1) and human (domains 2 to 5))
[2] = target: receptor binding domain (RBD) of the SARS COV-2 spike protein (amino acids 332-532) (SARS-COV-2) (UniProt P0DTC2)

Sequence of chimeric secretory component (CSC) of the polymeric immunoglobulin receptor (rabbit (domain 1) and human (domains 2 to 5)) (P01833 other isoform, or with tags, fused parts or gaps mutant): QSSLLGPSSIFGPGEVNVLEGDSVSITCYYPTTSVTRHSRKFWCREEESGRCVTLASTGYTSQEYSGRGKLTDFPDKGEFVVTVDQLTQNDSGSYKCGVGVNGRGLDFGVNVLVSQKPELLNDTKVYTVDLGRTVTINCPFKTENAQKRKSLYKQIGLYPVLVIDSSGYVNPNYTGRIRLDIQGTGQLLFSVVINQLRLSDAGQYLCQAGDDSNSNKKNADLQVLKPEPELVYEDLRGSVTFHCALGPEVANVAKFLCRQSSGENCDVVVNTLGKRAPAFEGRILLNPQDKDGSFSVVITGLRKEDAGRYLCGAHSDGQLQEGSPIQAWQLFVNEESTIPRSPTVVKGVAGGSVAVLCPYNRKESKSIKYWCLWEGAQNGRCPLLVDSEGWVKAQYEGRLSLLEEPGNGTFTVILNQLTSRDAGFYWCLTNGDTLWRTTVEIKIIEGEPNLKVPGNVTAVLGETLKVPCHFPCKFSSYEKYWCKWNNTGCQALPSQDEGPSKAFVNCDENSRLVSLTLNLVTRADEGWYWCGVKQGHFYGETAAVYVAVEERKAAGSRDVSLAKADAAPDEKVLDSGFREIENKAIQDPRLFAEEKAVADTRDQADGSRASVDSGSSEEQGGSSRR

“CB6-IgG (SARS-COV-2 specific monoclonal antibody CB6, IgG form)” gave a limit of detection [1] of over 100 µg/mL and a limit of detection [2] of 5 µg/mL.
